In patent US20230265151A1, “GIP/GLP1 CO-AGONIST COMPOUNDS” (priority 2020, published 2023):

T1: human GIP receptor (human, UniProt P48546 22-466)
T1 construct: whole, on cells; also called hGIPR; human glucose-dependent insulinotropic polypeptide receptor
T1 sequence (looked up): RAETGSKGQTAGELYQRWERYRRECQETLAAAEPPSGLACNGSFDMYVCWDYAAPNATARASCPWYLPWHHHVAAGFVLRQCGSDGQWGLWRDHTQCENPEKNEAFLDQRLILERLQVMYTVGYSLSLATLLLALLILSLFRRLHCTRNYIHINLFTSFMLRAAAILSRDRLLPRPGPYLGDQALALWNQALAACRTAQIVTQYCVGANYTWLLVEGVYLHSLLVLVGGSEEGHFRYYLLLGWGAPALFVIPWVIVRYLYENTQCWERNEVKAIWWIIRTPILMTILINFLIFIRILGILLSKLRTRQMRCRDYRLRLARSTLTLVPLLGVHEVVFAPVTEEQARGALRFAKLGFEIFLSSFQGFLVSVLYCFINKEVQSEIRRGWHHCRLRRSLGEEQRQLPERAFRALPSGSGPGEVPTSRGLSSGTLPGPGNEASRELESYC


Tests used:
human GIP receptor = target: T1, human GIP receptor; assay: SPA competition vs [125I]-GIP, hGIPR membranes
human glucagon receptor = target: T2, human glucagon receptor (human, UniProt P47871 26-477); assay: SPA competition vs [125I]-Gcg, hGcgR membranes
T2 construct: whole, on cells; also called hGCGR; hGcgR
T2 sequence (P47871 26-477): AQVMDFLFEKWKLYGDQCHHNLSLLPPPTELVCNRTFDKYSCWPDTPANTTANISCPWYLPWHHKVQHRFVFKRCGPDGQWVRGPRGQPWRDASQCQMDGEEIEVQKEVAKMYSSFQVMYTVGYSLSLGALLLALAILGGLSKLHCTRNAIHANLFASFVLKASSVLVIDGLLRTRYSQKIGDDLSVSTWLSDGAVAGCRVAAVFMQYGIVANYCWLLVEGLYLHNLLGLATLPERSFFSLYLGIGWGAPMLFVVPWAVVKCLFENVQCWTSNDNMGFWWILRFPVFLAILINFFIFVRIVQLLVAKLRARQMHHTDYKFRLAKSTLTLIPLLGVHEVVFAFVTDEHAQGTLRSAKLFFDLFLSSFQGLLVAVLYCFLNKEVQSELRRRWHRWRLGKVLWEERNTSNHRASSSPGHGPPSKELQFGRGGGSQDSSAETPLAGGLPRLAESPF
Protocol: The binding buffer contains 25 mM 4-(2-hydroxyethyl)-1-piperazineethanesulfonic acid (HEPES), pH 7.4, 2.5 mM CaCl₂, 1 mM MgCh, 0.1% (w/v) bacitracin (Research Products), 0.003% (w/v) Polyoxyethylenesorbitan monolaurate (TWEEN®-20), and Roche Complete™ Protease Inhibitors without EDTA. […] Plates are sealed and mixed on a plate shaker (setting 6) for 1 minute and read with a PerkinElmer Trilux MicroBeta® scintillation counter after 12 hours of incubation/settling time at room temperature.
Data are analyzed using four-parameter (curve maximum, curve minimum, IC₅₀, Hill slope) nonlinear regression routines (Genedata Screener, version 12.0.4, Genedata AG, Basal, Switzerland). […] Values for Kᵢ are reported as the geometric mean, with error expressed as the standard error of the mean (SEM) and n is equal to the number of independent replicates (determined in assays performed on different days).

human GLP-1 receptor = target: T3, human GLP-1 receptor (human, UniProt P43220 24-463); assay: SPA competition vs [125I]-GLP-1, hGLP-1R membranes
T3 construct: whole, on cells; also called hGLP-1R; human glucagon-like peptide-1 receptor
Outline: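 Competition binding in 25 mM HEPES pH 7.4, 2.5 mM CaCl₂, 1 mM MgCl₂, 0.1% bacitracin, 0.003% TWEEN-20, EDTA-free protease inhibitors. IC₅₀ from four-parameter nonlinear fit; Kᵢ given as geometric mean ± SEM, n = independent replicates on different days.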

Binder | Ki (human GIP receptor) [nM] | Ki (human glucagon receptor) [nM] | Ki (human GLP-1 receptor) [nM]
YXEGTXTSDXXIXLDXKAQXTFIXXLIKGGPSSGAPPPS (Aib2, αMeF(2F)6, 4Pal10, Aib11, αMeL13, Orn16, K17(Z1), Aib20, D-Glu24, αMeY25, K28(Z1), C-term NH2; Z1=AEEA2-(γ-Glu)-CO-(CH2)10-CH3, T at position 21) | 0.0166 | 60.6 | 0.265
YXEGTXTSDXXIXLDXKAQXGFIXXLIKGGPSSGAPPPS (Aib2, αMeF(2F)6, 4Pal10, Aib11, αMeL13, Orn16, K17(Z1), Aib20, D-Glu24 (printed e), αMeY25, K28(Z1), C-term NH2; Z1=AEEA2-(γ-Glu)-CO-(CH2)10-CH3, G at position 21) | 0.0197 | 135 | 0.188
YXEGTXTSDXSIXLDXIAQXEFIKXLIKGGPSSGAPPPS (Aib2, αMeF(2F)6, 4Pal10, αMeL13, Orn16, Aib20, K24(Z1), αMeY25, K28(Z1), C-term NH2; Z1=AEEA2-(γ-Glu)-CO-(CH2)12-CO2H) | 0.12 | 151 | 1.67
YXEGTXTSDXXIXLDXKAQXKFIXXLIEGGPSSGAPPPS (Aib2, αMeF(2F)6, 4Pal10, Aib11, αMeL13, Orn16, K17(Z1), Aib20, K21(Z1), D-Glu24, αMeY25, C-term NH2; Z1=AEEA-(γ-Glu)-CO-(CH2)12-CO2H) | 0.0782 | 230 | 1.85
YXEGTXTSDXXIXLDXKAQXKFIXXLIEGGPSSGAPPPS (Aib2, αMeF(2F)6, 4Pal10, Aib11, αMeL13, Orn16, K17(Z1), Aib20, K21(Z1), D-Glu24, αMeY25, C-term NH2; Z1=AEEA2-(γ-Glu)-CO-(CH2)10-CH3) | 0.0162 | 2.91 | 0.234
YXEGTXTSDXXIXLDXKAQXKFIXXLIEGGPSSGAPPPS (Aib2, αMeF(2F)6, 4Pal10, Aib11, αMeL13, Orn16, K17(Z1), Aib20, K21(Z1), D-Glu24, αMeY25, C-term NH2; Z1=AEEA3-(γ-Glu)-CO-(CH2)10-CH3) | 0.0218 | 12.2 | 0.194
YXEGTXTSDXXIXLDXKAQXKFIXXLIEGGPSSGAPPPS (Aib2, αMeF(2F)6, 4Pal10, Aib11, αMeL13, Orn16, K17(Z1), Aib20, K21(Z1), D-Glu24, αMeY25, C-term NH2; Z1=AEEA-(γ-Glu)-(10-(4-carboxyphenoxy)decanoyl)) | 0.046 | 118 | 0.673
YXEGTXTSDXSIXLDXIAQXKFIXXLIEGGPSSGAPPPSK (Aib2, αMeF(2F)6, 4Pal10, αMeL13, Orn16, Aib20, K21(Z1), D-Glu24, αMeY25, K40(Z1), C-term NH2; Z1=AEEA2-(γ-Glu)-CO-(CH2)12-CO2H) | 0.107 | 206 | 2.8
YXEGTXTSDXXIXLDXKAQXEFIXXLIEGGPSSGAPPPSK (Aib2, αMeF(2F)6, 4Pal10, Aib11, αMeL13, Orn16, K17(Z1), Aib20, D-Glu24, αMeY25, K40(Z1), C-term NH2; Z1=AEEA2-(γ-Glu)-CO-(CH2)10-CH3) | 0.0163 | 6.28 | 0.168
YXEGTXTSDXXIXLDXKAQXEFIXXLIEGGPSSGAPPPSK (Aib2, αMeF(2F)6, 4Pal10, Aib11, αMeL13, Orn16, K17(Z1), Aib20, D-Glu24, αMeY25, K40(Z1), C-term NH2; Z1=AEEA-(γ-Glu)-(10-(4-carboxyphenoxy)decanoyl)) | 0.053 | 360 | 0.765
YXEGTXTSDXSIXLDXKAQXEFIXXLIEGGPSSGAPPPSK (Aib2, αMeF(2F)6, 4Pal10, αMeL13, Orn16, K17(Z1), Aib20, D-Glu24, αMeY25, K40(Z1), C-term NH2; Z1=AEEA2-(γ-Glu)-CO-(CH2)10-CH3) | 0.0291 | 13.9 | 0.194
YXEGTXTSDYXIXLDXKAQXEFIXXLIEGGPSSGAPPPSK (Aib2, αMeF(2F)6, Aib11, αMeL13, Orn16, K17(Z1), Aib20, D-Glu24, αMeY25, K40(Z1), C-term NH2; Z1=AEEA2-(γ-Glu)-CO-(CH2)10-CH3) | 0.0228 | 2.84 | 0.137
YXEGTXTSDXXIXLDXQAQXEFIKXLIKGGPSSGAPPPS (Aib2, αMeF(2F)6, 4Pal10, Aib11, αMeL13, Orn16, Aib20, K24(Z1), αMeY25, K28(Z1), C-term NH2; Z1=AEEA2-(γ-Glu)-(10-(4-carboxyphenoxy)decanoyl)) | 0.0375 | 134 | 0.424
YXEGTXTSDXXIXLDXIAQXEFIKXLIKGGPSSGAPPPS (Aib2, αMeF(2F)6, 4Pal10, Aib11, αMeL13, Orn16, Aib20, K24(Z1), αMeY25, K28(Z1), C-term NH2; Z1=AEEA2-(γ-Glu)-CO-(CH2)12-CO2H) | 0.114 | 135 | 0.939
YXEGTXTSDXXIXLDXIAQXEFIKXLIKGGPSSGAPPPS (Aib2, αMeF(2F)6, 4Pal10, Aib11, αMeL13, Orn16, Aib20, K24(Z1), αMeY25, K28(Z1), C-term NH2; Z1=AEEA2-(γ-Glu)-(10-(4-carboxyphenoxy)decanoyl)) | 0.0432 | 44.6 | 0.557
YXEGTXTSDXXIXLDXIAQXEFIKXLIKGGPSSGAPPPS (Aib2, αMeF(2F)6, 4Pal10, αMeS11, αMeL13, Orn16, Aib20, K24(Z1), αMeY25, K28(Z1), C-term NH2; Z1=AEEA2-(γ-Glu)-CO-(CH2)12-CO2H) | 0.0491 | 328 | 0.863
